Here are results for 1 molecule from paper PMC3646893, “Solution Structure and Rpn1 Interaction of the UBL Domain of Human RNA Polymerase II C-Terminal Domain Phosphatase” (PLoS ONE, 2013).

The target of the assay is T1, Rpn1 regulatory subunit 1 (Rpn1 394-568), as used for NMR titration and ITC (human, UniProt Q13200 394-568).
T1 construct: source: E. coli BL21 (DE3), purified (size exclusion chromatography)
Briefly: ITC; VP-ITC, 25°C, NMR buffer; 20 µM Rpn1 regulatory subunit 1 in the cell, 25 injections of 6 µL of 400 µM UBL domain; one-site fit. Conditions: both partners purified. On the technique in general: Isothermal titration calorimetry measures the heat released or taken up as one component is titrated into another.

T1 sequence (Q13200 394-568): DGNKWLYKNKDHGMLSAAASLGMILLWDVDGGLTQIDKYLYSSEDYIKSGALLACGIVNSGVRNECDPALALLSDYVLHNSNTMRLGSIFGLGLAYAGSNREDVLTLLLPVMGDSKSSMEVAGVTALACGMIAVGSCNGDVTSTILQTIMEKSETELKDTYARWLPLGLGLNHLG

B1: UBL domain of hUBLCP1 (UBLCP1 1-81), as used for NMR and ITC (domain or fragment, human, UniProt Q8WVY7 1-81, looked up)
chain: MALPIIVKWGGQEYSVTTLSEDDTVLDLKQFLKTLTGVLPERQKLLGLKVKGKPAENDVKLGALKLKPNTKIMMMGTREES
notes: UBL domain of human UBLCP1, residues 1-81; 15N-labelled (M9 medium) for the NMR titration; also called 15N-labeled UBL domain; source: E. coli BL21 (DE3), purified (size exclusion chromatography)
With B1, the affinity, expressed as Kd, was 10.3 µM and the dH was -53.8 kcal/mol.

As a reminder, the Kd is the constant that tells how readily two partners part at equilibrium. Read a low Kd as higher affinity.
